Results on one substance are retold here after patent publication US20110165145A1, “IGF-II/IGF-IIE BINDING PROTEINS” (priority 2008, published 2011).

The target of this assay is insulin-like growth factor I (IGF-I) (UniProt P05019). Put plainly: cell-based or functional assay.
Sequence of insulin-like growth factor I (IGF-I) (P05019 49-118 limits assumed): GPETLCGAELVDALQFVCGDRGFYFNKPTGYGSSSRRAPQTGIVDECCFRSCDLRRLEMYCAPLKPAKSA

Substance “Neu-IGF-II antibody (anti-IGF-II antibody, R&D system Cat# MAB292)” yielded an IGF-I stimulated Ba/F3 cell proliferation of 30 % inhibition.
